{"source": "paper doi:10.1101/2021.02.08.430344", "key": {"[1]": {"target": "T1, SARS-CoV-2 nucleocapsid (N) protein (SARS-CoV-2, UniProt P0DTC9 2-419)", "assay": "SV-AUC; […], pH 7.4; ITC at 20 C; […] (137 mM NaCl)", "conditions": "protein: commercial; tags: C-terminal His-tag; chain copies: 2; single strand"}, "[2]": {"target": "T1, SARS-CoV-2 nucleocapsid (N) protein", "assay": "SV-AUC + ITC global fit; […], pH 7.4; ITC at 20 C; […] (137 mM NaCl)", "conditions": "protein: commercial; tags: C-terminal His-tag; chain copies: 2; single strand"}}, "data": [{"binder": "TTTTTTTTTT (ssDNA)", "note": "[T10]", "values": [{"measurement": "Kd", "setting": "[1]", "result": "< 0.1", "unit": "µM"}]}, {"binder": "TTTTTT (ssDNA)", "note": "[T6]", "values": [{"measurement": "Kd", "setting": "[2]", "result": 600, "unit": "nM"}]}, {"binder": "GTGT (ssDNA)", "note": "[(GT)2]", "values": [{"measurement": "Kd", "setting": "[1]", "result": "> 10", "unit": "µM"}]}, {"binder": "TTTTTTTTTTTTTTTTTTTT (ssDNA)", "note": "[T20]", "values": [{"measurement": "binding result", "setting": "[1]", "result": "binds"}]}]}
